According to patent publication US20160237160A1 (Bayer, published 2016):
Changes are numbered by the printed parent chain. Numbers in names are those of the source. Each block holds one binder with its values, some of them ahead of it.

Legend:
[1] = molecular target: T1, TWEAKR (TNFRSF12A, FN14), human, on tumor cell lines (human, UniProt Q9NP84 28-129); test: cell-based or functional assay
[2] = molecular target: T1, TWEAKR (TNFRSF12A, FN14), human, on …; test: FACS, A375 cells, 10 ug/ml
Protocol: (§1) To determine the binding characteristics of the anti-TWEAKR antibodies on mouse and human cancer cell lines, binding was tested by flow cytometry to a panel of cell lines. […] Cells were suspended at approximately 10⁵ cells/well in FACS buffer (PBS without Ca/Mg, containing 3% FCS, Biochrom). Cells were centrifuged (250 g, 5 min, 4° C.) and supernatant discarded. Cells were resuspended in dilutions of the antibodies of interest (10 μg/ml in 80 μl if not indicated otherwise) in FACS buffer, and incubated on ice for 1 h. […] After incubation for 1 h on ice cells were again washed with cold FACS buffer, resuspended in 1000 FACS buffer and analyzed by flow cytometry using a FACS-Array (BD Biosciences). Results are calculated as Geo Mean of fluorescence detected by the antibody of interest subtracted by background fluorescence as measured by detection with the secondary antibody alone. Values are scored according to the following system: Geo Mean−Geo Mean of secondary antibody alone >10: +, >100: ++, >1000: +++, 10000: ++++, close to category border in ( ).

[3] = molecular target: T2, TPP-2614 (TweakR-ECD-34-68-hIgGFc-His-D47A) (human); test: ELISA, IgG coated 1 ug/ml, TWEAKR variant 250 ng/ml, anti-HIS HRP (FIG. 6C)
T2 construct: also called D47A TWEAKR mutein
Protocol: Antibodies were coated (1 μg/ml), TWEAKR variant was added at 250 ng/ml, detection via anti-HIS HRP. […] Antibodies were coated (1 μg/ml), TWEAKR variant was added 250 ng/ml, detection via anti-HIS HRP.

[4] = molecular target: T1, TWEAKR (TNFRSF12A, FN14), human, on …; test: cell-based or functional assay; remark: listed apart in the source
[5] = molecular target: T1, TWEAKR (TNFRSF12A, FN14), human, on …; test: FACS, HT29 cells, 10 ug/ml
Protocol: as §1

[6] = molecular target: T3, TPP-1777 (DOG-TNFRSF12Aaa28-80-hIgG1-Fc) (dog); test: SPR, TWEAKR-Fc immobilized, IgG injected, bivalent analyte model (avidity mode);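 also: kd derived as the ratio of fitted dissociation to association rate constants, with sensorgrams corrected against a reference flow cell and a buffer blank before fitting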
T3 construct: bivalent antigen; also called dog TWEAKR Fc
Protocol: (§2) Sensorgrams were generated after in-line reference cell correction followed by buffer sample subtraction. The dissociation equilibrium constant (KD) was calculated based on the ratio of association (kₒₙ₁) and dissociation rated (koff1) constants, obtained by fitting sensorgrams with a bivalent analyte model using Biavaluation Software (version 4.0).

[7] = molecular target: T4, TPP-1779 (RAT-TNFRSF12Aaa28-80-hIgG1-Fc) (rat); test: as above
T4 construct: bivalent antigen; also called rat TWEAKR Fc
Protocol: as §2

[8] = molecular target: T5, TPP-601 (MURINE-TNFRSF12Aaa28-80-hIgG1-Fc) (murine); test: as above
T5 construct: dimeric; also called murine TWEAKR Fc
Protocol: as §2

[9] = molecular target: T6, TPP-1846 (MAC-TNFRSF12Aaa28-80-hIgG1-Fc) (macaca fascicularis); test: as above
T6 construct: bivalent antigen; also called mac fasc TWEAKR Fc
Protocol: as §2

[10] = molecular target: T7, TPP-1778 (PIG-TNFRSF12Aaa28-80-hIgG1-Fc) (pig); test: as above
T7 construct: bivalent antigen; also called pig TWEAKR Fc
Protocol: as §2

[11] = molecular target: T8, TPP-599 (HUMAN-TNFRSF12Aaa28-80-hIgG1-Fc) (human); test: as above
T8 construct: dimeric; also called human TWEAKR Fc; TWEAKR-Fc
Protocol: as §2

[12] = molecular target: T1, TWEAKR (TNFRSF12A, FN14), human, on …; test: FACS, SKOV-3 cells, 10 ug/ml
Protocol: as §1

[13] = molecular target: T9, TPP-1984 (hTNFRSF12Aaa28-68-CT-His) (human); test: ELISA, TPP-1984 coated at 1 µg/ml, biotinylated IgG at 0.08 µg/ml (open bar) and 0.3 µg/ml (filled bar), Streptavidin-HRP, Amplex Red
T9 construct: monomeric ectodomain with HIS6 tag; also called TWEAKR(28-68)-HIS; C-terminally truncated TWEAKR ectodomain
T9 chain: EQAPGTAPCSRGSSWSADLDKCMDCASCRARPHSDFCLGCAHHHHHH
Protocol: (§3) Detection was done with Streptavidin-HRP and Amplex-Red substrate.
(§4) To analyze for binding, 1 μg/ml of the respective dimeric TWEAKR-Fc construct were coated and, 0.3 μg/ml and 0.08 μg/ml of biotinylated IgG were used as soluble binding partner. Detection was done with Streptavidin-HRP and Amplex-Red substrate.

[14] = molecular target: T1, TWEAKR (TNFRSF12A, FN14), human, on …; test: cell-based or functional assay; remark: listed apart in the source
[15] = molecular target: T1, TWEAKR (TNFRSF12A, FN14), human, on …; test: FACS, WiDr cells, 10 ug/ml
Protocol: as §1

[16] = molecular target: T10, TPP-2203 (TWEAKR-ECD-34-68-hIgGFc-His) (human); test: ELISA, TPP-2203 coated at 1 µg/ml, biotinylated IgG at 0.08 µg/ml (open bar) and 0.3 µg/ml (filled bar), Streptavidin-HRP, Amplex Red
T10 construct: dimeric; also called TWEAKR(34-68)-Fc fusion protein; truncated ectodomain 34-68
Protocol: as §3, §4

[17] = molecular target: T11, TPP-2202 (TWEAKR-ECD-28-80-hIgGFc-His) (human); test: ELISA, TPP-2202 coated at 1 µg/ml, biotinylated IgG at 0.08 µg/ml (open bar) and 0.3 µg/ml (filled bar), Streptavidin-HRP, Amplex Red
T11 construct: dimeric; also called TWEAKR-Fc fusion protein; full ectodomain 28-80
Protocol: as §3, §4

[18] = molecular target: TPP-1990 (hTNFRSF12Aaa28-80-L65Q-hIgG1-Fc) (human); test: ELISA, TWEAKR-Fc coated 62 ng/ml, biotin-IgG titrated; + means IC50 1 to 150 pM;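 also: biotinylated IgG binding to immobilized TWEAKR-Fc muteins, detected with Streptavidin-HRP and Amplex Red, IC50 derived from fitted dose-response curves of twofold serial dilutions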
Protocol: (§5) To collect dose-response data, the different TWEAKR-Fc muteins were coated with a low concentration (62 ng/ml) in a 384-well Maxisorb ELISA plate and a serial 2fold dilution of biotinylated IgG starting with a concentration of 100 nM was used as soluble binding partner. Detection was done with Streptavidin-HRP and Amplex Red.
(§6) The dose-response data were fitted and IC50s determined.

[19] = molecular target: TPP-1988 (hTNFRSF12Aaa28-80-M50A-hIgG1-Fc) (human); test: as above
Protocol: as §5, §6

[20] = molecular target: TPP-2683 (hTNFRSF12Aaa28-80-R56P-hIgG1-Fc) (human); test: as above
Protocol: as §5, §6

[21] = molecular target: TPP-1989 (hTNFRSF12Aaa28-80-H60K-hIgG1-Fc) (human); test: as above
Protocol: as §5, §6

[22] = molecular target: TPP-1987 (hTNFRSF12Aaa28-80-S40R-hIgG1-Fc) (human); test: as above
Protocol: as §5, §6

[23] = molecular target: TPP-1986 (hTNFRSF12Aaa28-80-T33Q-hIgG1-Fc) (human); test: as above
Protocol: as §5, §6

[24] = molecular target: T12, TPP-2305 (hTNFRSF12Aaa28-80) (Human, UniProt Q9NP84 28-80); test: SPR (Biacore T100), IgG captured, TPP-2305 injected, 1:1 model
T12 construct: monomeric extracellular domain, bought; also called purified recombinant human TWEAKR protein; soluble monomeric TWEAKR
Protocol: Binding affinities of anti-TWEAKR antibodies were determined by surface plasmon resonance analysis on a Biacore T100 instrument (GE Healthcare Biacore, Inc.). Antibodies were immobilized onto a CM5 sensor chip through an indirect capturing reagent, anti-human IgG(Fc). […] Anti-TWEAKR antibodies were injected at a concentration of 10 μg/ml at 10 μl/min for 10 sec.
Sensorgrams were generated after in-line reference cell correction followed by buffer sample subtraction. The dissociation equilibrium constant (KD) was calculated based on the ratio of association (kₒₙ) and dissociation rated (koff) constants, obtained by fitting sensorgrams with a first order 1:1 binding model.

[25] = molecular target: T1, TWEAKR (TNFRSF12A, FN14), human, on …; test: FACS, NCI-H322 cells, 10 ug/ml
Protocol: as §1

[26] = molecular target: T1, TWEAKR (TNFRSF12A, FN14), human, on …; test: FACS, 786-O cells, 10 ug/ml
Protocol: as §1

[27] = molecular target: T8, TPP-599 …; test: ELISA, 2.5 nM biotinylated TWEAKR-Fc coated, soluble Fab, anti-c-Myc detection
[28] = molecular target: T8, TPP-599 …; test: ELISA, TWEAKR-Fc coated 62 ng/ml, biotin-IgG titrated; + means IC50 1 to 150 pM;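 also: biotinylated IgG binding to immobilized TWEAKR-Fc muteins, detected with Streptavidin-HRP and Amplex Red, IC50 derived from fitted dose-response curves of twofold serial dilutions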
Protocol: as §5, §6

- Fold induction of Caspase 3/7, 786-O cells, 100 ug/ml [1]: 1.61 fold
- Fold induction of Caspase 3/7, A253 cells, 100 ug/ml [1]: 1.6 fold
- Fold induction of Caspase 3/7, HT-29 cells, 100 ug/ml [1]: 2.59 fold
- Fold induction of Caspase 3/7, NCI-H322 cells, 100 ug/ml [1]: 1.58 fold
- GeoMean of Fluorescence minus GeoMean with the secondary antibody only [2]: 199
- % binding normalized by wt binding signal [3]: < 5%
- IL-8 release from A375 cells at 100 ug/ml, % of the activation by 300 ng/ml TWEAK ligand [4]: 113%
- GeoMean of Fluorescence minus GeoMean with the secondary antibody only [5]: 750
- Kd [6]: 17 nM
- Kd [7]: 21.1 nM
- Kd [8]: 4 nM
- Kd [9]: 23.8 nM
- Kd [10]: 34.2 nM
- Kd [11]: 16.2 nM
- GeoMean of Fluorescence minus GeoMean with the secondary antibody only [12]: 1660
- binding result [13]: binds
- % Inhibition of proliferation, 786-O cells, 96h, 100 ug/ml [14]: 68%
- % Inhibition of proliferation, A253 cells, 72h, 100 ug/ml [14]: > 100%
- % Inhibition of proliferation, HT-29 cells, 24h, 100 ug/ml [14]: 98%
- % Inhibition of proliferation, WiDr cells, 96h, 100 ug/ml [14]: 52%
- GeoMean of Fluorescence minus GeoMean with the secondary antibody only [15]: 1350
- binding result [16]: binds
- binding result [17]: binds
- binding result [18]: binds
- binding result [19]: binds
- binding result [20]: binds
- binding result [21]: binds
- binding result [22]: binds
- binding result [23]: binds
- Kd [24]: 27.6 nM
- koff [24]: 0.11 s⁻¹
- kon [24]: 4.2e+06 M⁻¹ s⁻¹
- GeoMean of Fluorescence minus GeoMean with the secondary antibody only [25]: 126
- GeoMean of Fluorescence minus GeoMean with the secondary antibody only [26]: 16300
B1: TPP-2084 (antibody, human IgG1, kappa, V domains shown)
VH: EVQLLESGGGLVQPGGSLRLSCAASGFTFSPYPMMWVRQAPGKGLEWVSYISPSGGSTHYADSVKGRFTISRDNSKNTLYLQMNSLRAEDTAVYYCARGGDTYFDYFDYWGQGTLVTVSS
VL: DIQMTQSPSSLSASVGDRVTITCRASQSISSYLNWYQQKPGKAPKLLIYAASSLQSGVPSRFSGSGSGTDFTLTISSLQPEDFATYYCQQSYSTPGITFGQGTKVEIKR
notes: Human IgG1

- % binding normalized by wt binding signal [3]: < 5%
- Kd [6]: 24.5 nM
- Kd [7]: 21.2 nM
- Kd [8]: 4.2 nM
- Kd [9]: 16.8 nM
- Kd [10]: 22.4 nM
- Kd [11]: 10.3 nM
- Kd [24]: 28.9 nM
- koff [24]: 0.086 s⁻¹
- kon [24]: 3e+06 M⁻¹ s⁻¹
B2: TPP-2077 (antibody, human IgG1, kappa)
heavy: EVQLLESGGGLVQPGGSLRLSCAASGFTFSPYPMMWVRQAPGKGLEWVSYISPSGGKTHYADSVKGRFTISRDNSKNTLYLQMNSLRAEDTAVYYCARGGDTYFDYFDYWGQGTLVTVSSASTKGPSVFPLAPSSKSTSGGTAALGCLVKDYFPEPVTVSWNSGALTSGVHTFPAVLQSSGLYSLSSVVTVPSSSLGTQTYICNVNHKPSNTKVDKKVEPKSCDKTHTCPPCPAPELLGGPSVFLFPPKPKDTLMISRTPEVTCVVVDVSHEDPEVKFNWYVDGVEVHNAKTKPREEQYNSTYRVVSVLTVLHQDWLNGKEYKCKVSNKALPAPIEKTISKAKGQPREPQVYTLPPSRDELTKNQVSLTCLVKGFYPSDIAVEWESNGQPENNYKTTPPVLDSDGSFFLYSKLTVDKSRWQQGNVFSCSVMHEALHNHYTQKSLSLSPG
light: DIQMTQSPATLSASVGDRVTITCRASQSISSYLNWYQQKPGKAPKLLIYAASSLQSGVPSRFSGSGSGTDFTLTISSLQPEDFATYYCQQSYSSPGITFGPGTKVEIKRTVAAPSVFIFPPSDEQLKSGTASVVCLLNNFYPREAKVQWKVDNALQSGNSQESVTEQDSKDSTYSLSSTLTLSKADYEKHKLYACEVTHQGLSSPVTKSFNRGEC
notes: Human IgG1

- binding result [27]: binds
B3: TPP-883 Fab variant A51Q of CDR-L2 (Fab, V domains shown)
VH: B1 VH with S57K, T102G
VL: DIQMTQSPATLSASVGDRVTITCRASQSISSYLNWYQQKPGKAPKLLIYQASSLQSGVPSRFSGSGSGTDFTLTISSLQPEDFATYYCQQSYSSPGITFGPGTKVEIK

- Fold induction of Caspase 3/7, 786-O cells, 100 ug/ml [1]: 1.81 fold
- Fold induction of Caspase 3/7, HT-29 cells, 100 ug/ml [1]: 2.44 fold
- Fold induction of Caspase 3/7, NCI-H322 cells, 100 ug/ml [1]: 1.49 fold
- Fold induction of Caspase 3/7, WiDr cells, 100 ug/ml [1]: 1.53 fold
- GeoMean of Fluorescence minus GeoMean with the secondary antibody only [2]: 229
- % binding normalized by wt binding signal [3]: < 5%
- IL-8 release from A375 cells at 100 ug/ml, % of the activation by 300 ng/ml TWEAK ligand [4]: 134%
- GeoMean of Fluorescence minus GeoMean with the secondary antibody only [5]: 634
- Kd [6]: 25 nM
- Kd [7]: 20.4 nM
- Kd [8]: 4.7 nM
- Kd [9]: 21.1 nM
- Kd [10]: 22.7 nM
- Kd [11]: 15.4 nM
- GeoMean of Fluorescence minus GeoMean with the secondary antibody only [12]: 1630
- % Inhibition of proliferation, 786-O cells, 96h, 100 ug/ml [14]: 75%
- % Inhibition of proliferation, A253 cells, 72h, 100 ug/ml [14]: > 100%
- % Inhibition of proliferation, HT-29 cells, 24h, 100 ug/ml [14]: 97%
- % Inhibition of proliferation, WiDr cells, 96h, 100 ug/ml [14]: 55%
- GeoMean of Fluorescence minus GeoMean with the secondary antibody only [15]: 1190
- Kd [24]: 27.6 nM
- koff [24]: 0.11 s⁻¹
- kon [24]: 4.2e+06 M⁻¹ s⁻¹
- GeoMean of Fluorescence minus GeoMean with the secondary antibody only [25]: 98
- GeoMean of Fluorescence minus GeoMean with the secondary antibody only [26]: 17500
B4: TPP-1538 (antibody, human IgG1, kappa)
heavy: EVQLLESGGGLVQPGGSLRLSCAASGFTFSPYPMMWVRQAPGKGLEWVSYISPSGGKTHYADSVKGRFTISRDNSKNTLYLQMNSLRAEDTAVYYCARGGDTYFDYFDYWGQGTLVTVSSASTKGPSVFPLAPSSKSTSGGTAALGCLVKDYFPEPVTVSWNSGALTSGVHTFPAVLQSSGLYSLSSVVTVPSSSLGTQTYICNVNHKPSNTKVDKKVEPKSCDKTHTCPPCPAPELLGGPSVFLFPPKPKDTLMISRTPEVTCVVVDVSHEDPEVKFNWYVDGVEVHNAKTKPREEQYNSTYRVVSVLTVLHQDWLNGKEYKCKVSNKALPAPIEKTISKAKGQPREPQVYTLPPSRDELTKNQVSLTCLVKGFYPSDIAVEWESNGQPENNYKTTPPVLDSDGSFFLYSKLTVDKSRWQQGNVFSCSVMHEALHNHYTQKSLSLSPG
light: AQDIQMTQSPATLSASVGDRVTITCRASQSISSYLNWYQQKPGKAPKLLIYAASSLQSGVPSRFSGSGSGTDFTLTISSLQPEDFATYYCQQSYSSPGITFGPGTKVEIKRTVAAPSVFIFPPSDEQLKSGTASVVCLLNNFYPREAKVQWKVDNALQSGNSQESVTEQDSKDSTYSLSSTLTLSKADYEKHKLYACEVTHQGLSSPVTKSFNRGEC
notes: Human IgG1

- Fold induction of Caspase 3/7, HT-29 cells, 100 ug/ml [1]: 1.81 fold
- IL-8 release from A375 cells at 100 ug/ml, % of the activation by 300 ng/ml TWEAK ligand [4]: 93%
- binding result [13]: binds
- binding result [16]: binds
- binding result [17]: binds
- binding result [18]: binds
- binding result [19]: binds
- binding result [28]: binds
- binding result [21]: binds
- binding result [22]: binds
- binding result [23]: binds
- Kd [24]: 0.8 nM
- koff [24]: 0.0324 s⁻¹
- kon [24]: 3.84e+07 M⁻¹ s⁻¹
B5: 136.1(TPP-2194) (antibody, mouse IgG2a, kappa, V domains shown)
VH: EVKLEESGGGLVQPGGSMKLSCVASGFTFNNYWMSWVRQSPEKGLEWLAEIRLKSDNYATHYAESVKGKFTISRDDSKSRLYLQMNNLRAENTGIYYCTGGFADYFDYWGQGTTLTVSS
VL: DIVLTQSPASLTVSLGQRATISCRASQSVSTSSYSYMQWYQQRPGQPPKLLIKYATNLDSGVPARFSGSGSGTDFTLNIHPVEEEDAATYYCQHSWEIPYTFGGGTKLEIKR
notes: Murine IgG2a; variable domains from WO2009/020933 with constant region added
